According to patent publication US5851983A, “Elastase inhibitory polypeptide and process for production thereof by recombinant gene technology” (Teijin Limited, priority 1987, dated 1998):

Experiment: Partial hydrolysis with healthy human saliva (Examples 15, 16)
Type: in vitro ADME
Settings: 37° C.
Procedure: Healthy human saliva was filtered through a 0.22 μm filter (Milex GS, Milipore), and in the filtrate was dissolved 1 mg/ml of the SLPI prepared in Reference Example 1. The mixture was then incubated at 37° C. for 30 days. As a control, the SLPI was dissolved in physiological saline (Physisalz; Fuso Yakuhin Kogyo), and the mixture was incubated at 37° C. for 30 days.
With an elapse of time, samples were taken and to each sample were added a Tris-HCl buffer (pH 6.8), SDS, 2-mercaptoethamel and glycerol, to final concentration of 60 mM, 2% by weight, 4% by weight and 10% by weight, respectively, and the mixture was subjected to an SDS-PAGE (U.K. Laemmli, Nature, 227, 680, 1970). The gel after electrophoresis was stained with Coomussie Brilliant Blue.
Next, polypeptides in the polyacrylamide gel thus obtained were electrically transferred to a membrane (Immobilon; Milipore) using a Milli Blot-SDE apparatus. After the transfer, the membrane was stained with 0.1% by weight of Coomassie Blue in 40% by weight methanol/1% by weight acetic acid, and washed with water. Then, after air drying, the bands b, c, d and e were excised, and for each band, the PTH-amino acids were cleaved from the N-terminus with an Applied Biosystems Protein Sequences (Applied Biosystems; 470A) and analysed with a PTH analyser (Applied Biosystems, 120A) to determine an amino acid sequence for 10 amino acids from the N-terminus.
According to the same procedure as described in Example 15, (Asn^55 -Ala^107) SLPI prepared in Example 11 was treated with healthy human saliva at 37° C., and a result is shown in FIG. 13. […] After 12 hours, a new band g (MW about 5,500) appeared.
Next, according to the same procedure as described in Example 15, the band g was electrically transferred to a membrane and N-terminal amino acid sequence was analyzed. […] The 6th amino acid could not be determined. The N-terminal amino acid sequence of the band g corresponds to an amino acid sequence starting from Arg^59 of SLPI.

B1: SLPI: Human secretory leukoprotease inhibitor; recombinant SLPI of Reference Example 1 used as control (protein)
chain: SGKSFKAGVCPPKKSAQCLRYKKPECQSDWQCPGKKRCCPDTCGIKCLDPVDTPNPTRRKPGKCPVTYGQCLMLNPPNFCEMDGQCKRDLKCCMGMCGKSCVSPVKA
- SDS-PAGE band of SLPI (MW about 13,000) during incubation in healthy human saliva (1 mg/ml, up to 30 days): decreased as time elapid
- SDS-PAGE band after incubation in physiological saline (control) (30 days): maintained a band having an MW of about 13,000 during the incubation
- cleavage sites in healthy human saliva (SDS-PAGE bands, N-terminal sequencing): between Arg^20 -Try^21, Arg^58 -Arg^59, Leu^72 -Met^73, and Met^73 -Leu^74
